Results taken from US20250092426, “CAS ENDONUCLEASES AND RELATED METHODS” (Flagship Pioneering Innovations VII, LLC, published 2025).

Target: T1, CasEnd-2 (synthetic construct)
T1 chain: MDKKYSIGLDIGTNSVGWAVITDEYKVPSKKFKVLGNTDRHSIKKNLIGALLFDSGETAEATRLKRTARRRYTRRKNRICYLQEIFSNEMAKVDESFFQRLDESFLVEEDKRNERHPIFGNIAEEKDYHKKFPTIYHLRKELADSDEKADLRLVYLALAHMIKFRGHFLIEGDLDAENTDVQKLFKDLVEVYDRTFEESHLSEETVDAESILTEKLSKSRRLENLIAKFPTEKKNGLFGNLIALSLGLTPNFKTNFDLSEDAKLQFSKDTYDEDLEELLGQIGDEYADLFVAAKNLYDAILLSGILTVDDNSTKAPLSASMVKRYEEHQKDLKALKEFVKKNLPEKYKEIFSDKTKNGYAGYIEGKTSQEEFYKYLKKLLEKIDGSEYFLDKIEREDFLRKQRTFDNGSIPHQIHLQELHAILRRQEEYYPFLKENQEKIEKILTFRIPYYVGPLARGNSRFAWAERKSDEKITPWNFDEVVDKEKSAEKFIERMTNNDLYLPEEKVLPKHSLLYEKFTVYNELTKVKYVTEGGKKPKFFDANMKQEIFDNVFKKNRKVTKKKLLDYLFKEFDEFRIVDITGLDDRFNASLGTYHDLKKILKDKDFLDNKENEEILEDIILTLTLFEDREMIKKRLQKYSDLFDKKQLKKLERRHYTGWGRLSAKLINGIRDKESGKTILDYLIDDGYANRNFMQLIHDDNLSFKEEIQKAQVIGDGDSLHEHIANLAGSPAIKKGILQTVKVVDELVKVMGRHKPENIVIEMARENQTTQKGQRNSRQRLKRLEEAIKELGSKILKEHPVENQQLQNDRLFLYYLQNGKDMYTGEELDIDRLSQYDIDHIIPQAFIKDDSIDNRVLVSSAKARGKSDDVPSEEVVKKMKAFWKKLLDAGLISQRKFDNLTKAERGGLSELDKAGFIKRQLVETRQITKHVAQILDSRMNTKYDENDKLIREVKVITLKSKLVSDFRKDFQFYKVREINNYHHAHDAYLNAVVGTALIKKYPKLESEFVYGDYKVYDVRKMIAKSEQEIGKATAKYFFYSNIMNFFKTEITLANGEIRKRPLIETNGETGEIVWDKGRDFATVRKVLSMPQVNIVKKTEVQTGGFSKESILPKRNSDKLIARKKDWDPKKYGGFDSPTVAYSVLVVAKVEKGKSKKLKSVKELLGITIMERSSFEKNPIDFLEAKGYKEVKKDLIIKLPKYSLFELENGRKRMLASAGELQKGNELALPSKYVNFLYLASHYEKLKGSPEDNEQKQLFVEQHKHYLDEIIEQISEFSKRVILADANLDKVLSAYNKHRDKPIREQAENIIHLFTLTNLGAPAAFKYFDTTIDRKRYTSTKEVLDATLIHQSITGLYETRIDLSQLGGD
Assay: cell_activity; +++; HEK293T; PAM not stated
Outline: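 BFP-to-GFP conversion via reverse transcriptase fusion with each Cas endonuclease plus template RNA: 200 ng of each plasmid nucleofected into 250,000 BFP-expressing HEK293T cells (program DS-150). Percent GFP+ cells by flow cytometry at day 4 measured editing.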

B1: BFP-to-GFP template RNA ; BFP reporter protospacer (ssRNA ; dsDNA)
RNA: GCCGAAGCACUGCACGCCGUGUUUUAGAGCUAGAAAUAGCAAGUUAAAAUAAGGCUAGUCCGUUAUCAACUUGAAAAAGUGGCACCGAGUCGGUGCACCCUGACGUACGGCGUGCAGUGCUU
DNA 1: GCCGAAGCACTGCACGCCGT
DNA 2: ACGGCGTGCAGTGCTTCGGC
activity: ≥ 100 % of reference
